From the RNAGym collection of RNA variant scans (doi:10.1073/pnas.2313332121)
This sample holds only a part of the variants without activity.

B1: TPR 5TU (parent)
chain: GGAUCUUCUCGAUCUAACAAAAAAGACAAAUCUGCCACAAAGCUUGAGAGCAUCUUCGGAUGCAGAGGCGGCAGCCUUCGGUGGCGCGAUAGCGCCAACGUUCUCAACUAUGACACGCAAAACGCGUGCUCCGUUGAAUGGAGUUUAUCAUG

Variants of: B1
Assay: polymerase ribozyme fitness, log enrichment relative to wild type (log ratio); higher = more active; in vitro selection for triplet polymerase activity
Summary of the method: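 In triplicate, a single round of in vitro selection was run on each mutant library, PCR-built and transcribed, covering one subunit of a heterodimeric triplet polymerase ribozyme. Frozen incubation at −7 °C followed annealing with a biotinylated primer, partner subunit and triplets, and extended constructs were then gel-excised, streptavidin-captured and taken through RT-PCR. Fitness is the logarithm of genotype enrichment over wild-type enrichment, from inverse-variance-weighted replicate averages of Illumina-sequenced inputs and outputs. […] only genotypes with ≥10 input reads and ≥1 read per output were kept.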

Row | Variant | polymerase ribozyme fitness (log ratio)
1 | A3G C8G A23C C54A G80C G81A A89U C93G | ≤ -4.2
2 | A3C A47U | -0.813
3 | A3C A16G A24U G48U G74U G83A A107C U130A | ≤ -4.2
4 | A3U A24U A66U C93G A107C | ≤ -4.2
5 | A3G U9G C36A G67A G68C A73G U135G | ≤ -4.2
6 | A3C G34C G48C A106U A138G A150G | ≤ -4.2
7 | A3U A39G A52G U144C | -3.97
8 | A3U C18U G50A G68A C76A G92C C93U | ≤ -4.2
9 | A3U A41U | -1.29
10 | A3C G141U | 0.471
11 | A3C A12U G58C C118U | -1.52
12 | A3G A97C A107G | ≤ -4.2
13 | A3C U6G A23U A39G U44A A89G C116G | ≤ -4.2
14 | A3U A49G | -0.232
15 | A3C C57U C93A | -1.56
16 | A3G U82G C95U U102G | -3.62
17 | A3G A16C A26C U45A G59C G86C U130G U145G | ≤ -4.2
18 | A3U A12G A28U C87U | ≤ -4.2
19 | A3U C27G C38U G48U G58U C79G G92A C105U G117U G143U | ≤ -4.2
20 | A3U A49G G50A C96U G141A | -3.63
21 | A3G U15C C93G U146G | -2.23

Row | Variant | polymerase ribozyme fitness (log ratio)
22 | A3U C43A U45A A47U G59C C125U U130C A137G | ≤ -4.2
23 | A3G A30C C51U U55G U61A G68U G83C A142G | ≤ -4.2
24 | A3G U4A A17C A52G G94C U102C C131U | -1.71
25 | A3U A17C A47U C93U U104A | -1.38
26 | A3G A24U C69G C93G A119G C132G U139A | ≤ -4.2
27 | A3U A20U C32U G70U G84U A120C | ≤ -4.2
28 | A3C U6G A22C A29C C85G C93U C108G G143A | ≤ -4.2
29 | A3C A17C A19U G25C C93U A115G A120U | ≤ -4.2
30 | A3G A20G G48C G50C G67C G68A G83A U139C | ≤ -4.2
31 | A3U A12G C43U C54U G71U C79A A120C | ≤ -4.2
32 | A3C G58A G94A | -0.578
33 | A3U A17U U55G G84A C96A G133U G152C | ≤ -4.2
34 | A3C C79U C93U C95U | ≤ -4.2
35 | A3U C8A A39U A91G U111A A115U G117U | ≤ -4.2
36 | A3C C5U G62C | -1.89
37 | A3C U7A C10U U53A G92C A138G | ≤ -4.2
38 | A3C A17G C69G C116G A122G | -1.99
39 | A3C C85U G136C | -3.76
40 | A3C A12G C87G | -3.93
41 | A3G U33G U55A A66C C108U | ≤ -4.2
42 | A3G C18U G50C C87G A97G C99U U146G | ≤ -4.2

Row | Variant | polymerase ribozyme fitness (log ratio)
43 | A3C G68U C93A | ≤ -4.2
44 | A3G A17U A47U U55G | -0.403
45 | A3U C10U C54A U55A | -1.97
46 | A3C U31G A52C U56A U61G A91C C108G A113U | ≤ -4.2
47 | A3G C5U C35U C85U A106G | 0.235
48 | A3C A22U A49U A52G U56A | -3.02
49 | A3G C38G G42U G59C G70C U78C C87A | ≤ -4.2
50 | A3U A49G G84C | -3.89
51 | A3G A47G U61A G94U C99A C108U U135G | ≤ -4.2
52 | A3U A37U U56A A97U | -3.82
53 | A3C C8G U9G G59A C87A G92C G117C G133U | ≤ -4.2
54 | A3G C18A A19G U33G C125U | ≤ -4.2
55 | A3U A26U C57U C108U C125A A147C U148G | ≤ -4.2
56 | A3G A20U C36A C87G C129A U139C U146G | ≤ -4.2
57 | A3C A41G G50C U53G G67U G86C G128U C129U U146G C149U | ≤ -4.2
58 | A3G A22U A40U U44C C96G C116U U134C | ≤ -4.2
59 | A3C A22U A37G C54G C57U C85U G88C G117C C129U | ≤ -4.2
60 | A3U A16C A20C A47U U53G G86A A110G | ≤ -4.2
61 | A3C U6G G25U G83A | -3.47
62 | A3G C5G G48C A52C C54G A66C C76G | ≤ -4.2
63 | A3G U15G G25U A41C G83A U90A A98U C99G A113G | ≤ -4.2

Row | Variant | polymerase ribozyme fitness (log ratio)
64 | A3U C5G A21U C85U A122G G140U U144G | ≤ -4.2
65 | A3U A40G C54U C95A C149G | ≤ -4.2
66 | A3C A47G A52G C87U C96U C99U G124A | -4.19
67 | A3C U61A G84A G92A A120C | ≤ -4.2
68 | A3G A12C C76G C93A C96A G136C | ≤ -4.2
69 | A3U A16U A17G A23C C93U A106G A122G U139G | ≤ -4.2
70 | A3C C10G G62U G68C C87U A107C C123U G128A A137C U139C | ≤ -4.2
71 | A3C G11A A19C C54U A122U U135A G143A | -3.73
72 | A3C U15A A19U C75U C87U | -1.71
73 | A3C U15G A24G G117A U151A | ≤ -4.2
74 | A3C A23U A41C C43U U61A A64C C96U A107C A115G | ≤ -4.2
75 | A3C C51G U55G C75U C118A | ≤ -4.2
76 | A3C A47C G59C G86A | -3.89
77 | A3C U4A G71U G88A | ≤ -4.2
78 | A3U C38U C96U G126U G143A | ≤ -4.2
79 | A3C U56A C69A C93U G126A U139G | -2.53
80 | A3G C51A | -1.26
81 | A3G A23C A24U C51U U55G G84A C85A G92U | ≤ -4.2
82 | A3U C14G A28C A91U A97C A122C | ≤ -4.2
83 | A3G C18U G34U C95U A115C | -4.09
84 | A3U A26U A29U A49C C87U C114U G141A | ≤ -4.2
